Experimental data published in US20220112288A1 (published 2022).

Biological target: T1, Rhesus macaque CD4-HIS (Acro Biosystems, Cat. CD4-C52H7) (rhesus macaque, UniProt P16003 26-390)
T1 construct: Bought recombinant protein; also called Rhesus CD4; rhesus CD4-HIS; not shown: His tag
Assay: BLI (Octet Red384); purified antibody captured on anti-mouse IgG Fc (AMC) sensors, rhesus CD4-HIS analyte at 100, 50, 25 nM; global 1:1 fit

T1 sequence (P16003 26-390 limits assumed): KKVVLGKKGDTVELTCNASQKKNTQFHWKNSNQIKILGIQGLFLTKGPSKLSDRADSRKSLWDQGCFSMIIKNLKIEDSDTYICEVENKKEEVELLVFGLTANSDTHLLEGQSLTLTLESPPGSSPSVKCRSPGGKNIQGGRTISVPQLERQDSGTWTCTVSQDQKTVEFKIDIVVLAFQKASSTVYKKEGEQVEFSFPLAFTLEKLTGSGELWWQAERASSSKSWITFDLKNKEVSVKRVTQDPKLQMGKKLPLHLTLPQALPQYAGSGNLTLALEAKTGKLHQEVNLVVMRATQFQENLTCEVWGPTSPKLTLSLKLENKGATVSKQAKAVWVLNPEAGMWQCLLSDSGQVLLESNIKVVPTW

B1: 75110_14P08A (antibody, V domains shown)
VH: QVQLQESGPGLVKSSETLSLTCTDSGDSIRSYYWNWIRQPAGKGLEWIGRIYASGSTNYNPSLKSRVIMSADTSKNRFSLKLSSVTAADTAVYYCARDGGVGDSLDYWGQGTLVTVSS
VL: DIVMTQTPLSLPVTPGEPASISCRSSQSLLDSDDGNTYLDWYLQKPGQSPQLLIYTLSYRASGVPDRFSGSGSGTDFTLKISRVEAEDVGVYYCMQRIEFPFTFGPGTKVDIK
notes: Tested as antibody purified from the AlivaMab Mouse hybridoma supernatant (chimeric AlivaMab; captured by anti-mouse IgG Fc sensors, human kappa light chain); also called ADS75110 purified AMM Ab 75110_14P08A; Sib8.2
Kd: 8.8 nM
koff: 0.00066 s⁻¹
kon: 75000 M⁻¹ s⁻¹
